“And” between values parts separate entries of the source, which are not always exact repeats. Equal entries are not always repeated.
Legend:
Mce3R R53A = target: T1, Mce3R R53A (Mycobacterium tuberculosis H37Rv, UniProt P95251 1-406, R53A); assay: EMSA; 0-128 nM; high-affinity binding lost; details: protein: recombinant; tags: MBP-His6 N-terminal, removed with TEV (same protocol as WT); chain copies: 2; label: 5'-Cy3 (forward strand); blunt
T1 sequence: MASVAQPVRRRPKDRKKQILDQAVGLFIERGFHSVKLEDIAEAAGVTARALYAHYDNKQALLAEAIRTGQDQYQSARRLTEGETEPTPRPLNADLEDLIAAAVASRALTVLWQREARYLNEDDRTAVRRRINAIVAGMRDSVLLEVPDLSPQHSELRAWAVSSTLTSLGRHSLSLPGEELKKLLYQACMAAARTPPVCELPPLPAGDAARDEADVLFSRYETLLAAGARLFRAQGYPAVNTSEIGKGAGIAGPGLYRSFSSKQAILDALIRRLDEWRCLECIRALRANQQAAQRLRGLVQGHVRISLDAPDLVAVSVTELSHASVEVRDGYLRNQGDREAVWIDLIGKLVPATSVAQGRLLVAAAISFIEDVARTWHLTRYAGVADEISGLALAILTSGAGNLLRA

SEC = target: the molecule itself; assay: SEC
[1] = target: the molecule itself; assay: SEC; M1 on Superdex 200 HiLoad 16:60, Buffer E (20 mM Tris-HCl pH 7.5, 0.2 M NaCl); two peaks (Figure S1B)

B1: Probe A (dsDNA)
DNA 1: GCCCCGCGCTATAGGATACTAGCAAGATACATCATAGCCAATATATGCCAGTTTGCATTGCTATTTACCGATCAGTTGTCCAAGCAATCGCGTATTGGCTATGGACATCAGCGGTTCTGCCGC
DNA 2: GCGGCAGAACCGCTGATGTCCATAGCCAATACGCGATTGCTTGGACAACTGATCGGTAAATAGCAATGCAAACTGGCATATATTGGCTATGATGTATCTTGCTAGTATCCTATAGCGCGGGGC
Mce3R R53A
  binding result: no binding

B2: Mce3R R53A variant (natural protein)
chain: T1 sequence
notes: not shown: MBP, N-terminal, cleaved; His6, N-terminal, cleaved
SEC
  stoichiometry N: 2 and 4

B3: M1, N-terminal TFR segment of Mce3R (amino acids 13-193) (domain or fragment)
chain: KDRKKQILDQAVGLFIERGFHSVKLEDIAEAAGVTARALYRHYDNKQALLAEAIRTGQDQYQSARRLTEGETEPTPRPLNADLEDLIAAAVASRALTVLWQREARYLNEDDRTAVRRRINAIVAGMRDSVLLEVPDLSPQHSELRAWAVSSTLTSLGRHSLSLPGEELKKLLYQACMAAAR
notes: Mce3R (Rv1963c), Mycobacterium tuberculosis H37Rv, amino acids 13-193 (M1); calculated monomer MW 20.2 kDa; also called M1 homotetramer; M1 homodimer
[1]
  stoichiometry N: 4 and 2
